In IntAct's records for PubMed 23297211:

B1: Small glutamine-rich tetratricopeptide repeat-containing protein 2 (Saccharomyces cerevisiae), Q12118 (parent)
chain: MSASKEEIAALIVNYFSSIVEKKEISEDGADSLNVAMDCISEAFGFEREAVSGILGKSEFKGQHLADILNSASRVPESNKKDDAENVEINIPEDDAETKAKAEDLKMQGNKAMANKDYELAINKYTEAIKVLPTNAIYYANRAAAHSSLKEYDQAVKDAESAISIDPSYFRGYSRLGFAKYAQGKPEEALEAYKKVLDIEGDNATEAMKRDYESAKKKVEQSLNLEKTVPEQSRDADVDASQGASAGGLPDLGSLLGGGLGGLMNNPQLMQAAQKMMSNPGAMQNIQKMMQDPSIRQMAEGFASGGGTPNLSDLMNNPALRNMAGNLFGGAGAQSTDETPDNENKQ
partner: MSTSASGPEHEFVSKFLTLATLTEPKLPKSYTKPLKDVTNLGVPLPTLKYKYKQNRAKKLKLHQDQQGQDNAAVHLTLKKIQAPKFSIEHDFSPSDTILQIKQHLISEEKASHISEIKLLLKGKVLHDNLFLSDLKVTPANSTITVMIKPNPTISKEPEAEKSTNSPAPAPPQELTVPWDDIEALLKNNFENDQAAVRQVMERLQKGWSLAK

Variants of: B1
Settings: with mdy2_yeast MDY2, Q12285

effect of a mutation on the interaction | Variant
decreasing interaction strength | V35A
decreasing interaction strength | E42R
with no effect | F16Y
disrupting interaction strength | D38R
decreasing interaction strength | D31R
